Test results taken from article PMC7596504 (2020).

Biological target: T1, MORC4 ATPaseCW cassette (aa 29-486) (human, UniProt Q8TE76 29-486)
T1 chain: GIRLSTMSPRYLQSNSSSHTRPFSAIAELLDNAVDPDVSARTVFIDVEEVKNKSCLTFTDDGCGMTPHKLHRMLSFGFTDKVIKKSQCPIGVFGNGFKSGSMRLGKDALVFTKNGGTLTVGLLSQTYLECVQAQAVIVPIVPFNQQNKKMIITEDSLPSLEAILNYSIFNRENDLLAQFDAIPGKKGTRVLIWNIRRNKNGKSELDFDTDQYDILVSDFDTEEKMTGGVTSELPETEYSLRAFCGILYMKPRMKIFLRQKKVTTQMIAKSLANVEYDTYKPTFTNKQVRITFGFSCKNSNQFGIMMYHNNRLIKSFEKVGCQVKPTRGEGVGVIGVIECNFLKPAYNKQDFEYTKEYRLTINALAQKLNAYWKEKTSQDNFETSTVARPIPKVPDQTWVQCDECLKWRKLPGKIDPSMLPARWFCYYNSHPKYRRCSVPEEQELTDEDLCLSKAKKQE

B1: unmodified histone H3 peptide (aa 1-12 of H3) (peptide)
peptide: ARTKQTARKSTG
Kd: 12 µM
